T1: IL17BR interaction with protein tyrosine kinase Lyn (Mus musculus, UniProt Q9JIP3)
T1 construct: using the B cell lymphoma cell line WEHI-231; endogenous in cells; host or cells: WEHI-231 B cell lymphoma cells
T1 sequence (Q9JIP3 18-499): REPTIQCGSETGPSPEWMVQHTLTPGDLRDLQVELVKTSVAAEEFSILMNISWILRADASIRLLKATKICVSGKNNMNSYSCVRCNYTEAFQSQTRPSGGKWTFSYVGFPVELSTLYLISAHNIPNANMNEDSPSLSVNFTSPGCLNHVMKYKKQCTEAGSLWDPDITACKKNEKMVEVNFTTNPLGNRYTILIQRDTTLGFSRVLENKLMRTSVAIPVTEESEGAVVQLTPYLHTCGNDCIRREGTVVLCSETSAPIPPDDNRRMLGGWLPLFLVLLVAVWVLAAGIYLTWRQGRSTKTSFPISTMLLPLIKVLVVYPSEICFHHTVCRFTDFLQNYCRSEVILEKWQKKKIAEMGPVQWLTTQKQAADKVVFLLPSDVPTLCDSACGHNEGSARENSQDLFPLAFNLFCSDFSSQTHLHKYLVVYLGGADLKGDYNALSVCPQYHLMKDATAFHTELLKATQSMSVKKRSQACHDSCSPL

B1: human IL-17E: Recombinant human IL-17E from PeproTech; two 145 amino acid chains, predominant form starting at Tyr 33 of GenBank AAG40848 (protein, listed as Homo sapiens)
chain: YSHWPSCCPSKGQDTSEELLRWSTVPVPPLEPARPNRHPESCRASEDGPLNSRAISPWRYELDRDLNRLPQDLYHARCLCPHCVSLQTGSHMDPRGNSELLYHNQTVFYRRPCHGEKGTHKGYCLERRLYRVSLACVCVRPRVMG
B2: murine IL-17E: Murine IL-17E from R&D Systems; predominant form starting at Val 17 of GenBank NP 542767 (protein)
chain: VSLRIQEGCSHLPSCCPSKEQEPPEEWLKWSSASVSPPEPLSHTHHAESCRASKDGPLNSRAISPWSYELDRDLNRVPQDLYHARCLCPHCVSLQTGSHMDPLGNSVPLYHNQTVFYRRPCHGEEGTHRRYCLERRLYRVSLACVCVRPRVMA

Experiments:
[1] = system: eosinophils (CCR3+) in spleen; assay: Eosinophils (CCR3+) in spleen of C8161 tumour xenografted mice; type: in vivo, CD-1 nude mice; settings: C8161-engrafted mice, Example 21
Method: Briefly, single cell suspensions of spleen cells were obtained by meshing and passing through a cell strainer (70 um; Bectin Dickinson) to separate fibrous tissue. Erythrocytes were lysed with ACK (0.155 M ammonium chloride, 0.1 mM disodium EDTA, 0.01 M potassium bicarbonate, pH 7.3) for 5 minutes on ice. The single cell suspensions of spleen cells were then analyzed by flow cytometry for the presence of eosinophils by surface staining with an antibody to CCR3 using the method as described in Example 13.
The effect of interleukin 17E on increased percentage of splenic eosinophils and B cells and the proportion of activated splenic B cells was examined. CD1-nude mice engrafted with C8161 human melanoma cells were treated with either PBS, murine IL-17E, or human IL-17E as described previously. At the endpoint of the experiment, spleens were isolated from treated mice, stained with markers specific for eosinophils (CCR3+), B cells (either IgM+ or CD19+), and B cell activation (CD-80+, CD86+), and examined by flow cytometry. […]
The percentage of eosinophils was determined by surface staining the granulocyte-gated population with phycoerythrin (PE)-conjugated anti-mouse CCR3. […] The proportion of activated splenic B cells was determined by staining with FITC-conjugated anti-mouse IgM together with PE-conjugated anti-mouse CD80 and PE-conjugated anti-mouse CD86. […]

[2] = molecular target: T1, IL17BR interaction with protein tyrosine kinase Lyn; assay: Coimmunoprecipitation of Lyn and IL17BR in WEHI-231 cells; type: cell-based; settings: 0.1 μg per 5×10^6 WEHI-231 cells, 5 minutes at 37° C.
Method: The effect of interleukin 17E on the induction of interaction of its receptor IL17BR with the protein tyrosine kinase Lyn was examined using the B cell lymphoma cell line WEHI-231.
A total of 5×10^6 cells per sample were incubated with 0.1 μg of human IL17E (hIL-17E) for 5 minutes at 37° C. Cells were lysed in lysis buffer for 30 minutes on ice, followed by centrifugation for 10 minutes. The tyrosine kinase Lyn was immunoprecipitated from 350 μg of protein lysate using rabbit anti-Lyn antibodies coupled to Protein A Sepharose beads. Immunoprecipitated samples containing approximately 25 μg of protein were separated by SDS-PAGE, followed by transfer to membranes for Western blotting.
For detection of phosphorylated Lyn, blots were incubated with anti-phosphotyrosine antibodies, followed by horseradish peroxidase (HRP)-conjugated anti-mouse antibodies.
For detection of IL17BR, blots were incubated with biotin-conjugated-rat anti-IL17BR antibodies, followed by HRP-conjugated streptavidin.
To assess equivalent loading of Lyn, blots were incubated with rabbit anti-Lyn antibodies, followed by HRP-conjugated-anti-rabbit antibodies.
All blots were exposed to autoradiography film and developed to detect chemiluminescence.

IL-5 = assay: Serum IL-5 in tumour-engrafted mice (ELISA); type: in vivo, CD1-nude mice
Method: The expression of IL-5 in serum was examined in tumour-engrafted mice treated with IL-17E. CD1-nude mice were engrafted with either C8161 human melanoma cells or MiaPaCa2 pancreatic cancer cells and treated with either PBS or murine IL-17E as described previously. Serum samples were collected individually from each mouse at the endpoint of the experiment, and IL-5 levels were determined by ELISA assay (BD OptEIA; BD Biosciences), according to the manufacturer's instructions. Immunoassay plates were coated with anti-mouse IL-5 monoclonal antibody as a capture antibody and incubated with serial dilutions of mouse sera. Plates were washed three times with wash buffer and blocked for 1 hr at room temp. Plates were incubated with biotinylated anti-mouse IL-5 monoclonal antibody and avidin-horseradish peroxidase conjugate for 1 hour, followed by seven washes. Substrate solution was added for 30 minutes, followed by stop solution, prior to measurement of absorbance (450/570 nm). Statistical analysis was performed to compare IL-5 levels. P values <0.05 were considered to be significant.

Row | Molecule | percentage of splenic eosinophils (CCR3+, granulocyte-gated) as compared to PBS [1] | coimmunoprecipitation of Lyn and IL17BR [2] | serum levels of IL-5 as compared to PBS (IL-5; mice engrafted with human melanoma C8161 cells) | serum levels of IL-5 as compared to PBS (IL-5; mice engrafted with human pancreatic cancer MiaPaCa2 cells)
1 | B1 | significantly increased | coimmunoprecipitated |  | 
2 | B2 | significantly increased |  | significantly higher | significantly higher

— US8287851B2, “Use of interleukin 17E for the treatment of cancer” (Lorus Therapeutics Inc., priority 2005, dated 2012)
